Reference: patent US20240343823A1 (Ablynx, published 2024)
Where two headings read alike, the source gives them in different places.

T1: TCRab on primary human T cells (human, UniProt P01848 1-140; P01850 1-176)
T1 construct: whole, on cells; T cells isolated from buffy coats; also called Primary hu T cells; human TCR
T1 TCR alpha (looked up): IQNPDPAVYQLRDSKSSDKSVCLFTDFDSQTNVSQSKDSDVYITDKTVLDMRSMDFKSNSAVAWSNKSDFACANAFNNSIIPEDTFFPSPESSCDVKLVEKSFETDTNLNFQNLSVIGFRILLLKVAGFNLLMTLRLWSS
T1 TCR beta (looked up): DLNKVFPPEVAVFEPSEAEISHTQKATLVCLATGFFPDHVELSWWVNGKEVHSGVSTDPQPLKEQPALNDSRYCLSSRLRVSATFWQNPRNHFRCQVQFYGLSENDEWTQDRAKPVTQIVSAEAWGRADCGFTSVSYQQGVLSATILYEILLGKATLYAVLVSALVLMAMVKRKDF

T2: cyno TCRab, in house produced (extracellular domains fused to a zipper peptide) (cynomolgus)
T2 construct: Numbering of the four differences is not explained; not shown: variable domains, if any; any residues beyond C131 of the beta chain
T2 alpha: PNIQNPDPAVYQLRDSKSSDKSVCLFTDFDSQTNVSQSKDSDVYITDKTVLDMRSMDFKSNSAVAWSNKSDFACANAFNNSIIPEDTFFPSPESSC
T2 beta: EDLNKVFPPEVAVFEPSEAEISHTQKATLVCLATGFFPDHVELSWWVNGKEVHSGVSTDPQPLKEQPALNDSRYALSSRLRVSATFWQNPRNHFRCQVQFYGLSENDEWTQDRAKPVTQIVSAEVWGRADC


How the values were obtained:
[1] = target: T3, cyno serum albumin (in house produced from animal tissue) (cynomolgus); assay: SPR ProteOn XPR36, serum albumin immobilized by amine coupling, 1:1 model
T3 construct: also called cynomolgus serum albumin
Procedure: (§1) Serum albumin proteins were immobilized on a GLC Sensor Chip (Biorad) via amine coupling, using EDC and NHS chemistry (running buffer: HBS-EP+, pH 7.4). Purified ISVDs were injected for 2 minutes (flow rate 45 μL/min) at different concentrations (between 0.24 nM and 500 nM) and dissociation was followed for 900 s. Regeneration was performed by injecting 10 mM Glycine-HCl (pH 1.5) for 47 seconds (flow rate 100 μL/min). Data was double referenced by subtracting a reference ligand lane and a blank buffer injection. Processed sensorgrams were analyzed based on the 1:1 interaction model (Langmuir binding model) using ProteOn Manager 3.1.0 (Version 3.1.0.6) software.

[2] = target: T4, human serum albumin (Sigma cat no A8763) (human, UniProt P02768 25-609); assay: as above
T4 construct: also called HSA
Procedure: as §1

[3] = target: mouse serum albumin (DivBioScience cat no IMSA) (mouse, UniProt P07724 25-608); assay: as above
Procedure: as §1

[4] = target: T5, cyno GPC3 expressed on CHO Flp-In cells (cynomolgus); assay: flow cytometry, periplasmic extract on CHO Flp-In cyno GPC3 against parental CHO
T5 construct: range 3-559; On cells; also called cyGPC3 CHO; CHO-cGPC3
Procedure: (§2) Periplasmic extracts were screened for human and cyno GPC3 binding in flow cytometry using CHO Flp-In cells (Invitrogen cat nr. K6010) expressing either human GPC3 (accession number P51654; Q25-R358, S359-H580) or cyno GPC3 (accession number P51654; Q3-R358; S359-H559), respectively. In brief, 1×10⁵ cells were incubated in 1:5 diluted periplasmic extracts for 30 min at 4° C., and then washed 3 times. As a control, the parental CHO Flp-In cell line (Invitrogen cat nr. K6010) was included. […] Samples were washed and resuspended in FACS Buffer (D-PBS (Gibco) with 10% FBS (Sigma) and 0.05% sodium azide (Merck)) supplemented with 5 nM TOPRO3 (Molecular Probes, cat nr T3605). Cell suspensions were then analyzed on a FACS Array. Gating was set on live, intact cells using forward/side scatter and TOPRO3 channel fluorescence parameters.

[5] = target: T6, cyno Glypican-3 delta-GPI-HIS, in-house produced (cynomolgus); assay: SPR ProteOn XPR36, periplasmic extract over coated cyno GPC3
T6 construct: range 3-559; also called cyno GPC3; cyGPC3
Procedure: (§3) Off-rates of ISVDs were determined on a ProteOn XPR36 instrument (Bio-Rad Laboratories, Inc.). ProteOn GLC Sensor Chips were coated with cyno Glypican-3 AGPI-HIS (in-house produced; accession number P51654; Q3-R358; S359-H559) and human GPC3 (R&D Systems, cat nr. 2119-GP). Periplasmic extracts were diluted 1:10 in ProteOn PBS Tween buffer (PBS, pH 7.4, 0.005% Tween 20 (167-2720, BioRad)). Experiments were carried out at 25° C. Data obtained was double referenced by reference lane subtraction as well as subtraction of a blank buffer injection. Processed curves were used for off-rate analysis based on the Langmuir dissociation (off-rate analysis) model.

[6] = target: T5, cyno GPC3 expressed on CHO Flp-In cells; assay: flow cytometry on CHO Flp-In cyno GPC3 cells
[7] = target: T7, recombinant human Glypican-3 (R&D Systems, cat nr. 2119-GP) (human, UniProt P51654 25-559); assay: SPR ProteOn XPR36, periplasmic extract over coated human GPC3
T7 construct: Bought protein; also called human GPC3; hGPC3
Procedure: as §3

[8] = target: T8, human GPC3 expressed on CHO Flp-In cells (human, UniProt P51654 25-554); assay: flow cytometry, periplasmic extract on CHO Flp-In human GPC3 against parental CHO
T8 construct: On cells; Q25-R358, S359-H580; also called hGPC3 CHO; CHO huGPC3
Procedure: as §2

[9] = target: T9, human GPC3 on tumor cell lines (HepG2, Huh-7, NCI-H661, MKN-45, NCI-H23, BxPC-3, NCI-H292) (human, UniProt P51654 25-554); assay: flow cytometry on HepG2 cells
T9 construct: Endogenous GPC3 of human cancer cell lines; also called GPC3 on HepG2; GPC3 on Huh-7

[10] = target: T9, human GPC3 on tumor cell lines (HepG2, …); assay: flow cytometry on Huh-7 cells
[11] = target: T9, human GPC3 on tumor cell lines (HepG2, …); assay: cell-based or functional assay
[12] = target: T9, human GPC3 on tumor cell lines (HepG2, …); assay: flow cytometry on HepG2 and Huh-7 cells
Procedure: as §2
Variants were evaluated for binding to HepG2, Huh-7 and CHO Flip-In cyno-GPC3 cells by flow cytometry, as described in Example 1.

[13] = target: T5, cyno GPC3 expressed on CHO Flp-In cells; assay: flow cytometry on CHO Flp-In cyno GPC3 cells; remark: listed apart in the source
[14] = target: T9, human GPC3 on tumor cell lines (HepG2, …); assay: flow cytometry on Huh-7 cells; remark: listed apart in the source
[15] = target: T5, cyno GPC3 expressed on CHO Flp-In cells; assay: flow cytometry on CHO Flp-In cyno GPC3 cells; remark: listed apart in the source
[16] = target: T9, human GPC3 on tumor cell lines (HepG2, …); assay: flow cytometry on HepG2 cells; remark: listed apart in the source
[17] = target: T1, TCRab on primary human T cells; assay: competition flow cytometry on primary human T cells, competitor T017000624 at EC30 (2E-08 M)
Procedure: (§4) T cells (human T cells obtained as described in Example 3 and cyno T cells purchased from LPT laboratory, Germany) were thawed and counted on the day of the assay and diluted to a concentration of 1E+06 cells/mL, before adding 75 μL to the wells of a V-bottom 96-well plate (Greiner, cat no 651180). Cells were washed once with cold FACS buffer, before adding 25 μL Nb and 25 μL competitor to the wells. […] Cells were resuspended and plates were incubated at 4° C. for 90 minutes, after which plates were washed twice in cold FACS buffer. Cells were resuspended in 50 μl 1/1000 diluted Monoclonal ANTI-FLAG® M2 (Sigma Aldrich, cat no F1804) in FACS buffer and incubated at 4° C. for 30 minutes. Plates were washed twice in cold FACS buffer. […] Plates were washed twice in cold FACS buffer. Cells were resuspended in 55 μL 1/1000 diluted Propidium Iodide (Sigma-Aldrich, cat no P4170) in FACS buffer before acquiring data on the MACSQuant X (Miltenyi biotec).

[18] = target: T10, TCRab on primary cyno T cells (cynomolgus); assay: competition flow cytometry on cyno T cells, competitor T017000623 at EC30 (5E-08 M)
T10 construct: whole, on cells; also called Primary cy T cells; cyno TCR
Procedure: as §4

[19] = target: T2, cyno TCRab, in house produced …; assay: SPR ProteOn XPR36, TCRab immobilized by amine coupling, 1:1 model
Procedure: as §1, with “Recombinant TCR” for “Serum albumin”, “0.2” for “0.24”, “200” for “500”, “3 M MgCl₂” for “10 mM Glycine-HCl (pH 1.5)”, “3 minutes” for “47 seconds”, “90” for “100”

T3 sequence (A2V9Z4 25-608): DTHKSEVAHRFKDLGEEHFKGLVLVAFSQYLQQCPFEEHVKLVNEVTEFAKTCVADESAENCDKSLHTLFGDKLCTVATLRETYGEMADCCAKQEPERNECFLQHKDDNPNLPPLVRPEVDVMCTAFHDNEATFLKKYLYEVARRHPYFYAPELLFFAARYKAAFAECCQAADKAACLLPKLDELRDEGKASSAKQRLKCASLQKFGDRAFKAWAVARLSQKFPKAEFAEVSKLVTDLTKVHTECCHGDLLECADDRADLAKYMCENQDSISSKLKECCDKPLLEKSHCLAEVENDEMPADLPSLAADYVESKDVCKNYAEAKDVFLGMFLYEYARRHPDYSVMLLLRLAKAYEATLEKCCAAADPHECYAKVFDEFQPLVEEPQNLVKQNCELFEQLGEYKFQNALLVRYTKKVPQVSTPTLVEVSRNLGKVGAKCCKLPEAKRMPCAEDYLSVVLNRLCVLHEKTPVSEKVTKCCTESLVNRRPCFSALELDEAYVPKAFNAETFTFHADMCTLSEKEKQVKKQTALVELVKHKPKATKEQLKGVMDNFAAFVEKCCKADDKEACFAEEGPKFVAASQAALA
mouse serum albumin (DivBioScience cat no IMSA), sequence (P07724 25-608 limits assumed): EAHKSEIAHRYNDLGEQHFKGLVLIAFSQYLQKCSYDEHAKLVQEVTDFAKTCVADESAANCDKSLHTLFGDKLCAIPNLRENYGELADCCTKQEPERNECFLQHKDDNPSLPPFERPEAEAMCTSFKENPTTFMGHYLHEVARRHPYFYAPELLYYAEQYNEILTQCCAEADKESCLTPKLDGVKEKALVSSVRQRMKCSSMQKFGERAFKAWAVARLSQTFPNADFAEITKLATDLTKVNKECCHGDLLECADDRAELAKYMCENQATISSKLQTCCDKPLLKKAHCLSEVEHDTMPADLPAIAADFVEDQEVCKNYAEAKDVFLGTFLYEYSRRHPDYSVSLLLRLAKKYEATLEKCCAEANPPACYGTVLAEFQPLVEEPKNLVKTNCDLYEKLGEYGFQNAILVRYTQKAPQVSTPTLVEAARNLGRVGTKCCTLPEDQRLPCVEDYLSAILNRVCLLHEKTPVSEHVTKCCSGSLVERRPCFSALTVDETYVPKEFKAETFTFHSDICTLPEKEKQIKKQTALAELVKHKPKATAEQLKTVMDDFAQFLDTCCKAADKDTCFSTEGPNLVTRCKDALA

| Binder | Ratio MFI cyGPC3 CHO/CHO [4] | koff [5] | EC50 [6] | koff [7] | Ratio MFI hGPC3 CHO/CHO [8] | EC50 [9] | EC50 [10] | other results |
| --- | --- | --- | --- | --- | --- | --- | --- | --- |
| ALB223 (VHH, also called ALB23002-A) VHH: EVQLVESGGGVVQPGGSLRLSCAASGFTFRSFGMSWVRQAPGKGPEWVSSISGSGSDTLYADSVKGRFTISRDNSKNTLYLQMNSLRPEDTALYYCTIGGSLSRSSQGTLVTVSS | – | – | – | – | – | – | – | Kd [1]: 0.57 nM; Kd [2]: 0.88 nM; Kd [3]: 5.3 nM |
| A0226015A08 (VHH, Parental ISVD; also called A02260015A08; anti-GPC3 ISVD) VHH: EVQLVESGGGLVQAGGSLRLSCVASGSIFRSVFSSSTMEWYRQPPGKKRELVARIAPGDGTNYGALYADSVKGRFTISRDDAKKTVDLQMNSLKPEDTGVYFCASGVAWGQGTLVTVSS | 13.7 | 0.0004 s⁻¹ | 7.8 nM | 0.00033 s⁻¹ | 58.2 | 7.5 nM | 6.6 nM | – |
| A022600031 (bispecific antibody) DVQLVESGGGLVQPGGSLRLSCVASGDVHKINFLGWYRQAPGKEREKVAHISIGDQTDYADSAKGRFTISRDESKNMVYLQMNSLKPEDTAVYFCRAFSRIYPYDYWGQGTLVTVSSGGGGSGGGGSGGGGSGGGGSGGGGSGGGGSGGGGSEVQLVESGGGLVQAGGSLRLSCVASGSIFRSVFSSSTMEWYRQPPGKKRELVARIAPGDGTNYGALYADSVKGRFTISRDDAKKTVDLQMNSLKPEDTGVYFCASGVAWGQGTLVTVSSGGGGSGGGGSGGGGSGGGGSGGGGSGGGGSGGGGSEVQLVESGGGVVQPGGSLRLSCAASGLTFSSYAMGWFRQAPGKERERVVSISRGGGYTYYADSVKGRFTISRDNSENTVYLQMNSLRPEDTALYYCAAARYWATGSEYEFDYWGQGTLVTVSS | – | – | – | – | – | – | – | IC50 (M), Incucyte human TDC HepG2-Nuclight green assay [11]: 1.5e-08 M |
| A022600314 (VHH, also called A0226000314) VHH: EVQLVESGGGVVQPGGSLRLSCAASGSIFRSVFSSSTMEWYRQAPGKKRELVARIAPGEGTYYGALYADSVKGRFTISRDNAKNTVYLQMNSLRPEDTALYYCASGVAWGQGTLVTVSS | – | – | 12 nM | – | – | 16 nM | 9.3 nM | fold decrease in binding potency against parental A0226015A08 [12]: < 2 fold; fold decrease in binding potency against parental A0226015A08 [13]: < 2 fold |
| A0226018C08 (VHH, Parental ISVD; also called A02260018C08; anti-GPC3 ISVD) VHH: EVQLVESGGGLVQPGGSLRLSCVASGFTFSSFAMTWVRRPPGKGLEWVATITNGGVTSYRDSVKGRFTISRDNAKNTLYLEMTSLNPEDTAVYICANARRTGPRAPTDIGSYRGQGTLVTVSS | 19.9 | 0.0011 s⁻¹ | – | 0.00097 s⁻¹ | 159 | – | – | EC50 [14]: 0.696 nM; EC50 [15]: 0.49 nM; EC50 [16]: 0.915 nM |
| T017000698 (bispecific antibody, Bivalent ISVD construct: anti-TCR and anti-albumin; also called TCE01-9GS-ALB23002-A) DVQLVESGGGVVQPGGSLRLSCVASGYVHKINFYGWYRQAPGKEREKVAHISIGDQTDYADSAKGRFTISRDESKNTVYLQMNSLRPEDTAAYYCRALSRIWPYDYWGQGTLVTVSSGGGGSGGGSEVQLVESGGGVVQPGGSLRLSCAASGFTFRSFGMSWVRQAPGKGPEWVSSISGSGSDTLYADSVKGRFTISRDNSKNTLYLQMNSLRPEDTALYYCTIGGSLSRSSQGTLVTVSSA | – | – | – | – | – | – | – | IC50 [17]: 190 nM; IC50 [18]: 250 nM; Kd [19]: 11 nM |
